# Measured values reported in paper PMC11979331, “RcSRR1 interferes with the RcCSN5B-mediated deneddylation of RcCRL4 to modulate RcCO proteolysis and prevent rose flowering under red light”.
# T1: RcFRSL3 (UniProt A0A2P6RRT4 1-153)
# T1 sequence: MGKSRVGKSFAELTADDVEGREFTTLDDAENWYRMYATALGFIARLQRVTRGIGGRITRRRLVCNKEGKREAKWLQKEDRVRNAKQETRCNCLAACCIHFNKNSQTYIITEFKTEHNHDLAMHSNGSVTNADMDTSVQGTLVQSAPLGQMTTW
# B1: RcSRR1 promoter G-box probe (dsDNA)
# DNA 1: TTCAGGTACCGTATTCACGTTTTTCGAAGTTCAGGTACTA
# DNA 2: TAGTACCTGAACTTCGAAAAACGTGAATACGGTACCTGAA
# Biological target: T1, RcFRSL3
# Assay: EMSA; Light Shift Chemiluminescent EMSA kit (buffer per manufacturer), about 2 ug protein, 24 C, 20 min; 6% native PAGE in 0.5x TBE; pH and salt not given
# Conditions: protein: recombinant; tags: GST (pGEX4T-1) per construct section; called His-RcFRSL3 in EMSA section; label: 3' biotin on both strands; blunt
binder,measurement,value
B1,binding result,binds
